Experimental data as given in patent publication US9938505B2, “Polypeptide composition and culture method for pluripotent stem cell using same” (FUJIFILM Corporation, priority 2013, dated 2018).

Key:
[1] = Aggregation after dialysis (removal of urea); format: physicochemical; conditions: after stepwise dialysis against PBS, 1.5 M NaCl, 0.5 M L-arginine, 1 mM EDTA, pH 7.4
Experimental: For RCP-1 to RCP-10 and RCP-17, each of the purified polypeptide solutions was dialyzed using SLIDE-A-LIZER (trade name, 3.5 K MWCO.). Basically, by using a dialysis buffer (PBS, 1.5 M NaCl, 0.5 M L-arginine, 1 mM EDTA, pH 7.4) as an outer dialysate, urea was removed by stepwise dialysis. The concentration of the end-product of dialysis was calculated from the absorbence at 280 nm by using NANODROP (trade name, Thermo Fisher Scientific Inc.).
Furthermore, the indices of hydrophobicity determined for each of the amino acids were summed up, the obtained value was divided by the number of the amino acids, and the outcome was determined as the GRAVY value (see Kyte J., Doolittle R. F. (1982), J. Mol. Biol, 157: 105-132). The GRAVY value is an index of the hydrophilicity and hydrophobicity of a polypeptide calculated from the degree of hydrophobicity of the amino acids contained in each polypeptide. The greater the GRAVY value, the more the polypeptide is hydrophobic, and the smaller the GRAVY value, the more the polypeptide is hydrophilic. The results are shown in Table 4. • Whether or not aggregation was occurred was evaluated based on the scale of G, A, and B as shown below. The results are summarized in Table 4. • G: The formation of an aggregate was not observed. • A: The formation of particles having a particle size of about 100 nm was observed. • B: The formation of an aggregation of particles having a particle size of equal to or greater than 1 mm was visually observed.

iPS cells = test: Evaluation of maintenance of undifferentiated state (colony form, NANOG staining); format: cell-based, human; conditions: FIGS. 4A to 4E; after culture for 1 month
Experimental: iPS cells collected in the same manner as in <Cell adhesiveness evaluation 1> were suspended in TeSR2. The iPS cells were seeded into 6-well plate (Tissue culture-treated, Falcon), onto which each of the samples 1, 2, 5, 6, and 7 used in <Cell adhesiveness evaluation 1> was adsorbed in the same manner as in <Cell adhesiveness evaluation 1>, and cultured in a CO2 incubator at 37° C. Except for the day after the seeding, the medium was replaced every day. In the same method as described above, the cells were subcultured every six days. FIGS. 3A to 3E show forms of the iPS cells cultured on each of the samples.
After being cultured for 1 month under the conditions described above, the cells were immobilized using 4% paraformaldehyde and treated with 1% Triton-X/PBS so as to enhance the membrane permeability. After the cells were subjected to a blocking treatment using an IMAGE IT SIGNAL ENHANCER (trade name, Invitrogen), an anti-human NANOG antibody (AF 1997, R&D Systems, Inc.), an ALEXA FLUOR 555 binding rabbit anti-goat IgG antibody (Invitrogen), and DAPI (Dojindo Molecular Technologies, Inc.) were added thereto for labeling, and the cells were imaged using a fluorescence microscope. FIGS. 4A to 4E show the fluorescence microscopic images.
FIGS. 3A and 4A show the iPS cells cultured on RCP-1; FIGS. 3B and 4B show the iPS cells cultured on RCP-11; FIGS. 3C and 4C show the iPS cells cultured on natural human vitronectin; FIGS. 3D and 4D show the iPS cells cultured on rLaminin-5; and FIGS. 3E and 4E show the iPS cells cultured on rLaminin-511. The scale bar in the images indicates […]. In FIGS. 3A to 3E, the images on the left side are full images of the colony, and the images on the right side are magnified images. In FIGS. 4A to 4E, the images on the left side are images of the cells stained with DAPI, and the images on the right side are images of the cells stained with an anti-NANOG antibody. The scale bar in FIGS. 3A to 4E indicates 200 μm.

| Molecule | Aggregation [1] | NANOG expression / maintenance of undifferentiated state (iPS cells) |
| --- | --- | --- |
| RCP-17: recombinant polypeptide SEQ ID NO: 39; human vitronectin positions 1-55, 270-277, 295-341, 342-373, C274S (protein, Synthetic peptide RCP-17, human vitronectin positions 1-55, 270-277, 295-341, 342-373, C274S) MDQESCKGRCTEGFNVDKKCQCDELCSYYQSCCTDYTAECKPQVTRGDVFTMPEDESQEESEGSEDIFELLFWGRTSAGTRQPQFISRDWHGVPGQVDAAMAGRIYISGMAPRPSLAKKQRFRHRNRKGYRSQRGHSRGRNQN | A (The formation of particles having a particle size of about 100 nm was observed.) |  |
| RCP-7: recombinant polypeptide SEQ ID NO: 20; human vitronectin positions 1-55, 270-373, C274S (protein, Synthetic peptide RCP-7, human vitronectin positions 1-55, 270-373, C274S) MDQESCKGRCTEGFNVDKKCQCDELCSYYQSCCTDYTAECKPQVTRGDVFTMPEDESQEESEGSSLSAVFEHFAMMQRDSWEDIFELLFWGRTSAGTRQPQFISRDWHGVPGQVDAAMAGRIYISGMAPRPSLAKKQRFRHRNRKGYRSQRGHSRGRNQN | A (The formation of particles having a particle size of about 100 nm was observed.) |  |
| RCP-8: recombinant polypeptide SEQ ID NO: 21; human vitronectin positions 1-55, 270-373, 374-379, C274S (protein, Synthetic peptide RCP-8, human vitronectin positions 1-55, 270-373, 374-379, C274S) MDQESCKGRCTEGFNVDKKCQCDELCSYYQSCCTDYTAECKPQVTRGDVFTMPEDESQEESEGSSLSAVFEHFAMMQRDSWEDIFELLFWGRTSAGTRQPQFISRDWHGVPGQVDAAMAGRIYISGMAPRPSLAKKQRFRHRNRKGYRSQRGHSRGRNQNSRRPSR | A (The formation of particles having a particle size of about 100 nm was observed.) |  |
| RCP-6: recombinant polypeptide SEQ ID NO: 19; human vitronectin positions 1-55, 270-459, C274S, C411S, C453S (protein, Synthetic peptide RCP-6, human vitronectin positions 1-55, 270-459, C274S, C411S, C453S) MDQESCKGRCTEGFNVDKKCQCDELCSYYQSCCTDYTAECKPQVTRGDVFTMPEDESQEESEGSSLSAVFEHFAMMQRDSWEDIFELLFWGRTSAGTRQPQFISRDWHGVPGQVDAAMAGRIYISGMAPRPSLAKKQRFRHRNRKGYRSQRGHSRGRNQNSRRPSRATWLSLFSSEESNLGANNYDDYRMDWLVPATSEPIQSVFFFSGDKYYRVNLRTRRVDTVDPPYPRSIAQYWLGSPAPGHL | A (The formation of particles having a particle size of about 100 nm was observed.) |  |
| Natural vitronectin: human vitronectin extracted from human blood plasma, BD Biosciences (protein, UniProt P04004 20-478, looked up) Vitronectin: DQESCKGRCTEGFNVDKKCQCDELCSYYQSCCTDYTAECKPQVTRGDVFTMPEDEYTVYDDGEEKNNATVHEQVGGPSLTSDLQAQSKGNPEQTPVLKPEEEAPAPEVGASKPEGIDSRPETLHPGRPQPPAEEELCSGKPFDAFTDLKNGSLFAFRGQYCYELDEKAVRPGYPKLIRDVWGIEGPIDAAFTRINCQGKTYLFKGSQYWRFEDGVLDPDYPRNISDGFDGIPDNVDAALALPAHSYSGRERVYFFKGKQYWEYQFQHQPSQEECEGSSLSAVFEHFAMMQRDSWEDIFELLFWGRTSAGTRQPQFISRDWHGVPGQVDAAMAGRIYISGMAPRPSLAKKQRFRHRNRKGYRSQRGHSRGRNQNSRRPSRATWLSLFSSEESNLGANNYDDYRMDWLVPATCEPIQSVFFFSGDKYYRVNLRTRRVDTVDPPYPRSIAQYWLGCPAPGHL |  | strongly expressed NANOG in the entirety of the colony |
